Experimental data: publication PMC3788737, “Structural Insights into Neutrophilic Migration Revealed by the Crystal Structure of the Chemokine Receptor CXCR2 in Complex with the First PDZ Domain of NHERF1” (PLoS ONE, 2013)

T1: NHERF1 PDZ1 domain (residues 11-94) (human, UniProt O14745 11-94)
T1 construct: Na+/H+ exchanger regulatory factor-1 (NHERF1), human, PDZ1 domain, residues 11-94; The PDZ1 part of the chimera m1, written on its own for the pair PDZ1 and CXCR2 peptide of the crystal structure; also called first PDZ domain of NHERF1; source: E. coli BL21 Codon Plus (DE3), purified, as part of the chimeric protein PDZ1-TSTTL; not shown: His6, N-terminal, cleaved; SUMO, N-terminal, cleaved
T1 sequence (looked up): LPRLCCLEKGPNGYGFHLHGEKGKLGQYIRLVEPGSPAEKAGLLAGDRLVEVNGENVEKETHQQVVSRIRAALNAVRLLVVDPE


Legend:
[1] = biological target: T1, NHERF1 PDZ1 domain (residues 11-94); experiment: crystal structure; chimeric PDZ1(11-94)-TSTTL, hanging drop, 100 mM sodium acetate pH 4.6, 2.7 M sodium chloride, 20 °C; 1.16 Å; the tail of one molecule binds the neighbouring PDZ1; conditions: both partners purified
[2] = biological target: the molecule itself; experiment: as above

binding result [1]	Binder	binding result [2]
binds	TSTTL (Interleukin 8 receptor, beta (CXCR2), human, residues 356-360 (C-terminus); The CXCR2 part of the chimera m1 (joined to residue 94 of PDZ1), written on its own for the pair of the crystal structure; also called CXCR2 pentapeptide; source: E. coli BL21 Codon Plus (DE3), purified, as the C-terminal extension of the chimeric protein PDZ1-TSTTL) [CXCR2 C-terminal peptide TSTTL (residues 356-360)]	–
–	chimeric protein of the NHERF1 PDZ1 domain (residues 11-94) fused at its C-terminus to the CXCR2 residues 356-360 (TSTTL) (other, human, Na+/H+ exchanger regulatory factor-1 (NHERF1), human, PDZ1 domain, residues 11-94; C-terminal extension that corresponds to residues 356-360 of human CXCR2; one molecule in the asymmetric unit; also called PDZ1-CXCR2; not shown: His6, N-terminal, cleaved; SUMO, N-terminal, cleaved) LPRLCCLEKGPNGYGFHLHGEKGKLGQYIRLVEPGSPAEKAGLLAGDRLVEVNGENVEKETHQQVVSRIRAALNAVRLLVVDPETSTTL	binds
